# Legend:
# [1] = target: shFcγRIIIa-Q162-H6 (soluble human FcγRIIIa lacking glycosylation at position 162, hexahistidine tag, Example 3) (human) (UniProt P08637); assay: SPR (Biacore1000), receptor coupled to CM5 chip, IgG in flow, steady state
# [2] = target: shFcγRIIIa-H6 (soluble human FcγRIIIa with hexahistidine tag, Example 3) (human) (UniProt P08637); assay: as above
Substance,Kd [1] [µM],Kd [2] [µM]
"IgG mutant 88 T260H, non-GE glycoform (antibody)",0.29,0.277
"IgG mutant 85 F243H, non-GE glycoform (antibody)",0.382,0.542
"control antibody (humanized IgG1), non-GE glycoform",0.214,0.246
"IgG mutant 43 S239D, non-GE glycoform (antibody)",0.122,0.0857
"IgG mutant 98 S239E, non-GE glycoform (antibody)",0.17,0.155

# Further lines, results first:
Kd [1] [µM],Kd [2] [µM],Substance
0.372,0.688,"IgG mutant 20 S239W, non-GE glycoform (antibody)"
0.152,0.189,"IgG mutant 30 H268E, non-GE glycoform (antibody)"
0.0873,0.124,"IgG mutant 9 H268D, non-GE glycoform (antibody)"
0.428,0.887,"IgG mutant 22 F243E, non-GE glycoform (antibody)"

# From patent US20070111281A1
